This note sets out measurements from publication PMC4403819.

The target of this data set is T1, OmpR-His6 non-phosphorylated (Yersinia enterocolitica Ye9 (O:9)?) (UniProt P74982).
T1 sequence: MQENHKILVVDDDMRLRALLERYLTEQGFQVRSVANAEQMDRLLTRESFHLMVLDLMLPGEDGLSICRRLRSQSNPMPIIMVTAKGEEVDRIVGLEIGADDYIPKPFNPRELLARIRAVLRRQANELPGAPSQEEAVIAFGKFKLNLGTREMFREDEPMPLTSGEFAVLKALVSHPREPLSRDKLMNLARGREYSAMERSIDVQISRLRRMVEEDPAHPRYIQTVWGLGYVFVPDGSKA
Description: EMSA. As to conditions: Binding buffer, pH and temperature not given ([…]. (Mobility shift assays separate free from complexed probe on a gel.)

“TGGAATTCATTGCAGCCAGAGGCATTACCCCTCTGTTTTTGCTCATAGATAAACCTCAAGTGTCCGATTTTTAATTTAATTCAATGGATCACAAGCTTTAAAACCCATTGCTGCGTAAATTATATGTGCGTGCTATGGTACATACATTCGTGAATGTATGTAAATCGCACCCCCTCGAAAAAACAACGCTATGGCACGAAAAACCAAACAGCAAGGTACCCA (double strand) [acrR promoter fragment p222]”: the binding entry is on record as “binds more weakly”.
